Reference: patent US20210138083A1 (INATHERYS, published 2021)

Key:
[1] = target: T1, human transferrin receptor (Transferrin receptor protein 1 isoform 1, Homo sapiens, NCBI NP_003225.2) (Homo sapiens, UniProt P02786 1-760); assay: flow cytometry, biotinylated antibody on THP-1 and MEC-1 cells, streptavidin Alexa F488
T1 construct: Carried by the CD71+ cell lines THP-1, MEC-1 and HL-60 and by CHO cells transfected with human CD71; also called TfR; CD71
Protocol: Serial dilutions (5 to 0.05 ug/mL) of both biotinylated antibodies (antibody A24 and antibody of ADC INA01-SDV1) were performed and incubated on THP-1 and MEC-1 cell lines. The binding of the diluted antibodies was detected by Flow cytometry using streptavidin Alexa F488 (available at ThermoFisher scientific).

[2] = target: T1, human transferrin receptor (Transferrin …); assay: cell-based or functional assay

T1 sequence (P02786 whole entry, canonical isoform): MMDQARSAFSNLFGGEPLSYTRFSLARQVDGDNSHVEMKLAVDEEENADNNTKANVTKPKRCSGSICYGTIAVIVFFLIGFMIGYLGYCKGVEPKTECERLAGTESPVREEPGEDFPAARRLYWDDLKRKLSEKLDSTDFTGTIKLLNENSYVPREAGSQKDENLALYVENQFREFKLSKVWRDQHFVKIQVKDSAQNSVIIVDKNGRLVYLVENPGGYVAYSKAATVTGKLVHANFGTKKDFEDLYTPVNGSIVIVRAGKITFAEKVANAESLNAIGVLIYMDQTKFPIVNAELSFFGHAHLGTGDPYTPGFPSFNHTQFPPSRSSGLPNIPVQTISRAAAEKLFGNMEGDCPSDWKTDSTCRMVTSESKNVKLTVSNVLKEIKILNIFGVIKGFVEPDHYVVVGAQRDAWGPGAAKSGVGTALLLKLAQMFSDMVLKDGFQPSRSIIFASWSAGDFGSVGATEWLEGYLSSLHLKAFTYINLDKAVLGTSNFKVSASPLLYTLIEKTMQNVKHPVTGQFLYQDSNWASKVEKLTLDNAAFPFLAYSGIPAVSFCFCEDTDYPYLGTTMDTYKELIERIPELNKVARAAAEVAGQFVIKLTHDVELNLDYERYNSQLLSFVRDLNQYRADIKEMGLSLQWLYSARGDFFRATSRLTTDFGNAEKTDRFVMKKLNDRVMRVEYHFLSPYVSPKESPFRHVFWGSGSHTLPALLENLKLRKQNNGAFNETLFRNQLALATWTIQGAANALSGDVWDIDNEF

Row | Binder | binding result [1] | IC50 of cell proliferation of HL-60 acute myeloid leukemia cell line [2] [µg/mL]
1 | A24 (antibody, V domains shown, biotinylated in Example 1, Mouse monoclonal IgG (IgG2kappa) as disclosed in WO 2005/111082; also called antibody A24; murine A24 antibody) VH: QIQLVQSGPELKKPGETVKISCKASGYTFTNQGMNWVKQAPGKGLKWMGWINTYTGEPINADDFKGRFAISLETSASTAYLQINNLKNEDMATYFCVREGWDSMDYWGQGTSVTVSS VL: QIVLTQSPAIMSASPGEKVTITCSASSSVNYMHWFQQKPGTSPKLWIYSTSNLASGVPARFSGSGSGTSYSLTISRMEAEDAATYYCQQRSSYPLTFGAGTKLELKR | binds | –
2 | INA01-SDV1 (antibody, human IgG4 S228P, kappa, V domains shown, linker APN (formula IV)-valine-citrulline-para-aminobenzyl ester-MMAE attached through the cysteine residues (thiols); biotinylated in Example 1) VH: QVQLVQSGPELKKPGASVKVSCKASGYTFTNQGMNWVKQAPGKGLKWMGWINTYTGEPINADDFKGRFVISLDTSASTAYLQISSLKAEDTAVYFCVREGWDSMDYWGQGTSVTVSS VL: QIVLTQSPATLSVSPGERATLSCSASSSVNYMHWFQQKPGQSPRLLIYSTSNRATGIPARFSGSGSGTSYTLTISSLEPEDFAVYYCQQRSSYPLTFGQGTKLEIKR | – | 0.08
